B1: EHEE_rd2_0601 (parent)
chain: TYTYKLTDEEASRRAEDEWRNRGYDVRVRNNNGTWEVEVR

Variants of: B1
Experiment: folding stability dG (cDNA display proteolysis); higher = more stable
Conditions: PBS, room temperature

Compared with TYTYKLTDEEASRRAEDEWRNRGYDVRVRNNNGTIEVEVR, TYTYKLTDEEASRRAEDEWRNRGYDVRVRNNNGTYEVEVR is higher in “folding stability dG” value: 1.37 kJ/mol for the first, 3.74 kJ/mol for the second.

First: TYTYKLTDEEASRRAEDEWRNRGYDVRVRNNNGTMEVEVR
Second: TYTYKLTDEEASRRAEDEWRNRGYDVRVRNNNGTLEVEVR
The “folding stability dG” value of the first is lower: -2.23 kJ/mol for the first, -0.862 kJ/mol for the second.

Compared with TYTYKLTDEEASRRAEDEWRNRGYDVRVRNNNGTCEVEVR, TYTYKLTDEEASRRAEDEWRNRGYDVRVRNNNGTTEVEVR is lower in “folding stability dG” value: -0.87 kJ/mol for the first, -2.69 kJ/mol for the second.

Going from TYTYKLTDEEASRRAEDEWRNRGYDVRVRNNNGTFEVEVR to TYTYKLTDEEASRRAEDEWRNRGYDVRVRNNNGTPEVEVR, the “folding stability dG” value falls from 3.72 kJ/mol to -2.81 kJ/mol.

Compared with TYTYKLTDEEASRRAEDEWRNRGYDVRVRNNNGTVEVEVR, TYTYKLTDEEASRRAEDEWRNRGYDVRVRNNNGTWSVEVR is higher in “folding stability dG” value: -3.53 kJ/mol for the first, 2.56 kJ/mol for the second.

Going from TYTYKLTDEEASRRAEDEWRNRGYDVRVRNNNGTWLVEVR to TYTYKLTDEEASRRAEDEWRNRGYDVRVRNNNGTWMVEVR, the “folding stability dG” value falls from 6.69 kJ/mol to 4.99 kJ/mol.

Going from TYTYKLTDEEASRRAEDEWRNRGYDVRVRNNNGTWHVEVR to TYTYKLTDEEASRRAEDEWRNRGYDVRVRNNNGTWYVEVR, the “folding stability dG” value rises from 3.46 kJ/mol to 8.27 kJ/mol.

First: TYTYKLTDEEASRRAEDEWRNRGYDVRVRNNNGTWQVEVR
Second: TYTYKLTDEEASRRAEDEWRNRGYDVRVRNNNGTWRVEVR
The “folding stability dG” value of the first is higher: 3.11 kJ/mol for the first, -1.03 kJ/mol for the second.

First: TYTYKLTDEEASRRAEDEWRNRGYDVRVRNNNGTWVVEVR
Second: TYTYKLTDEEASRRAEDEWRNRGYDVRVRNNNGTWNVEVR
The “folding stability dG” value of the first is higher: 6.59 kJ/mol for the first, 0.724 kJ/mol for the second.

Compared with TYTYKLTDEEASRRAEDEWRNRGYDVRVRNNNGTWAVEVR, TYTYKLTDEEASRRAEDEWRNRGYDVRVRNNNGTWDVEVR is higher in “folding stability dG” value: 0.573 kJ/mol for the first, 1.22 kJ/mol for the second.

Compared with TYTYKLTDEEASRRAEDEWRNRGYDVRVRNNNGTWFVEVR, TYTYKLTDEEASRRAEDEWRNRGYDVRVRNNNGTWWVEVR is higher in “folding stability dG” value: 7.33 kJ/mol for the first, 7.65 kJ/mol for the second.

Compared with TYTYKLTDEEASRRAEDEWRNRGYDVRVRNNNGTWTVEVR, TYTYKLTDEEASRRAEDEWRNRGYDVRVRNNNGTWIVEVR is higher in “folding stability dG” value: 5.33 kJ/mol for the first, 8.09 kJ/mol for the second.

Going from TYTYKLTDEEASRRAEDEWRNRGYDVRVRNNNGTWCVEVR to TYTYKLTDEEASRRAEDEWRNRGYDVRVRNNNGWWEVEVR, the “folding stability dG” value rises from 5.28 kJ/mol to 6.45 kJ/mol.

Compared with TYTYKLTDEEASRRAEDEWRNRGYDVRVRNNNGSWEVEVR, TYTYKLTDEEASRRAEDEWRNRGYDVRVRNNNGQWEVEVR is higher in “folding stability dG” value: 5.36 kJ/mol for the first, 6.2 kJ/mol for the second.

Compared with TYTYKLTDEEASRRAEDEWRNRGYDVRVRNNNGIWEVEVR, TYTYKLTDEEASRRAEDEWRNRGYDVRVRNNNGMWEVEVR is lower in “folding stability dG” value: 8.37 kJ/mol for the first, 6.62 kJ/mol for the second.

Going from TYTYKLTDEEASRRAEDEWRNRGYDVRVRNNNGDWEVEVR to TYTYKLTDEEASRRAEDEWRNRGYDVRVRNNNGKWEVEVR, the “folding stability dG” value rises from 3.61 kJ/mol to 3.63 kJ/mol.

First: TYTYKLTDEEASRRAEDEWRNRGYDVRVRNNNGNWEVEVR
Second: TYTYKLTDEEASRRAEDEWRNRGYDVRVRNNNGHWEVEVR
The “folding stability dG” value of the first is lower: 4.14 kJ/mol for the first, 5.03 kJ/mol for the second.

Going from TYTYKLTDEEASRRAEDEWRNRGYDVRVRNNNGFWEVEVR to TYTYKLTDEEASRRAEDEWRNRGYDVRVRNNNGRWEVEVR, the “folding stability dG” value falls from 6.8 kJ/mol to 3.62 kJ/mol.

Going from TYTYKLTDEEASRRAEDEWRNRGYDVRVRNNNGYWEVEVR to TYTYKLTDEEASRRAEDEWRNRGYDVRVRNNNGLWEVEVR, the “folding stability dG” value falls from 6.94 kJ/mol to 6.2 kJ/mol.

First: TYTYKLTDEEASRRAEDEWRNRGYDVRVRNNNGVWEVEVR
Second: TYTYKLTDEEASRRAEDEWRNRGYDVRVRNNNGAWEVEVR
The “folding stability dG” value of the first is higher: 8.41 kJ/mol for the first, 4.9 kJ/mol for the second.

Going from TYTYKLTDEEASRRAEDEWRNRGYDVRVRNNNGGWEVEVR to TYTYKLTDEEASRRAEDEWRNRGYDVRVRNNNGEWEVEVR, the “folding stability dG” value rises from 2.82 kJ/mol to 5.38 kJ/mol.

First: TYTYKLTDEEASRRAEDEWRNRGYDVRVRNNNGTWEVLVR
Second: TYTYKLTDEEASRRAEDEWRNRGYDVRVRNNNGTWEVGVR
The “folding stability dG” value of the first is higher: 5.35 kJ/mol for the first, -3.1 kJ/mol for the second.

Going from TYTYKLTDEEASRRAEDEWRNRGYDVRVRNNNGTWEVDVR to TYTYKLTDEEASRRAEDEWRNRGYDVRVRNNNGTWEVKVR, the “folding stability dG” value falls from 2.93 kJ/mol to 1.64 kJ/mol.

Compared with TYTYKLTDEEASRRAEDEWRNRGYDVRVRNNNGTWEVIVR, TYTYKLTDEEASRRAEDEWRNRGYDVRVRNNNGTWEVHVR is lower in “folding stability dG” value: 7.41 kJ/mol for the first, 4.25 kJ/mol for the second.

Going from TYTYKLTDEEASRRAEDEWRNRGYDVRVRNNNGTWEVMVR to TYTYKLTDEEASRRAEDEWRNRGYDVRVRNNNGTWEVAVR, the “folding stability dG” value falls from 5.59 kJ/mol to 2.89 kJ/mol.

Going from TYTYKLTDEEASRRAEDEWRNRGYDVRVRNNNGTWEVFVR to TYTYKLTDEEASRRAEDEWRNRGYDVRVRNNNVTWEVEVR, the “folding stability dG” value falls from 4.31 kJ/mol to -3.87 kJ/mol.

Going from TYTYKLTDEEASRRAEDEWRNRGYDVRVRNNNWTWEVEVR to TYTYKLTDEEASRRAEDEWRNRGYDVRVRNNNYTWEVEVR, the “folding stability dG” value rises from -2.55 kJ/mol to -1.94 kJ/mol.

First: TYTYKLTDEEASRRAEDEWRNRGYDVRVRNNNGTWELEVR
Second: TYTYKLTDEEASRRAEDEWRNRGYDVRVRNNNGTWEWEVR
The “folding stability dG” value of the first is higher: 6.1 kJ/mol for the first, -4.07 kJ/mol for the second.

First: TYTYKLTDEEASRRAEDEWRNRGYDVRVRNNNGTWEYEVR
Second: TYTYKLTDEEASRRAEDEWRNRGYDVRVRNNNGTWEFEVR
The “folding stability dG” value of the first is lower: -3.15 kJ/mol for the first, 1.51 kJ/mol for the second.

First: TYTYKLTDEEASRRAEDEWRNRGYDVRVRNNNGTWEHEVR
Second: TYTYKLTDEEASRRAEDEWRNRGYDVRVRNNNGTWEIEVR
The “folding stability dG” value of the first is lower: 1.01 kJ/mol for the first, 7.33 kJ/mol for the second.

Compared with TYTYKLTDEEASRRAEDEWRNRGYDVRVRNNNGTWETEVR, TYTYKLTDEEASRRAEDEWRNRGYDVRVRNNNGTWEAEVR is higher in “folding stability dG” value: -2.64 kJ/mol for the first, -1.75 kJ/mol for the second.

With TYTYKLTDEEASRRAEDEWRNRGYDVRVRNNNGTWEMEVR the “folding stability dG” value was 2.99 kJ/mol.

Reference: the MegaScale stability set (Tsuboyama et al. 2023)
